{"source": "paper PMC9523886", "assay_in_all_cases": "FCCS", "key": {"[1]": {"molecular_target": "GFP-DscIA (Discoidin I, paralog A, fused with GFP) (D. discoideum)"}, "[2]": {"molecular_target": "GFP-DscIA (Discoidin I, paralog A, fused with GFP) (D. discoideum)", "remark": "listed apart in the source"}, "[3]": {"molecular_target": "GFP-DscIA (Discoidin I, paralog A, fused with GFP) (D. discoideum)", "remark": "listed apart in the source"}}, "note": "Where two headings read alike, the source gives them in different places.", "data": [{"substance": "mCh-MyoII (mCherry-tagged Myosin II) (from UniProt P08799 1-2116) (natural protein)", "values": [{"measurement": "Kd", "setting": "[1]", "result": 1.9, "unit": "µM"}, {"measurement": "Kd", "setting": "[2]", "result": 2.8, "unit": "µM"}, {"measurement": "Kd", "setting": "[3]", "result": 2.9, "unit": "µM"}]}]}
